# Source: patent US20110256153A1 (IMMUNOGEN, published 2011)
# T1: human CD37 (human, UniProt P11049 1-278)
# T1 construct: Tetraspanin antigen; Expressed on 300-19 cells transfected with pSRa-CD37 (entire CDS) or endogenous on WSU-DLCL-2, BJAB and Ramos lymphoma cells; also called CD37 antigen; human CD37 wildtype
# T1 sequence: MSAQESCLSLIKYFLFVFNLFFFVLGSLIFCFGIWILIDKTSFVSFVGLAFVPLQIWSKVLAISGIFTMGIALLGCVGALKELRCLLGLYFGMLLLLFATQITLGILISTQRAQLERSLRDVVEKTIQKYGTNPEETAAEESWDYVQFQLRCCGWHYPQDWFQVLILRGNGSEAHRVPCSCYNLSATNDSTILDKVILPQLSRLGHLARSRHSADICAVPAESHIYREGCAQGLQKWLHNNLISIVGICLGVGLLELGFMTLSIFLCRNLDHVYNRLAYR
# T2: hCD37-M1 (human/murine chimera, UniProt P11049 1-281)
# T2 construct: stably expressed on 300-19 cells; also called hCD37-M1 variant
# T2 chain: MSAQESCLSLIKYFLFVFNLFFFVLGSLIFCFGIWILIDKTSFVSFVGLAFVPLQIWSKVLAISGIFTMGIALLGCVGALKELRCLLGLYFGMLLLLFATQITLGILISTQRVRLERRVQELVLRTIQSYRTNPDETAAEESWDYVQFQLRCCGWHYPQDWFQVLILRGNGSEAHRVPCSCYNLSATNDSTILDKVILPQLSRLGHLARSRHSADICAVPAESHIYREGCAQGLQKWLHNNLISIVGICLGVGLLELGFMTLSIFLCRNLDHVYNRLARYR
# T3: hCD37-M3 (human/murine chimera, UniProt P11049 1-281)
# T3 construct: stably expressed on 300-19 cells; also called hCD37-M3 variant
# T3 chain: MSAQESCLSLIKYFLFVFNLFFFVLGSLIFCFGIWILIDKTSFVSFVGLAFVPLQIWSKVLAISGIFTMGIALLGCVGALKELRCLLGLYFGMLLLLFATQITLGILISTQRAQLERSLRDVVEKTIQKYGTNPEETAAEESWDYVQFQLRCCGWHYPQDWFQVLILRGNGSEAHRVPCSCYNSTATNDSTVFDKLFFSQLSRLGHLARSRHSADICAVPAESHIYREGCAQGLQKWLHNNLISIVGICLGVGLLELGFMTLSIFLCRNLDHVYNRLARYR
# B1: muCD37-3 (antibody, mouse IgG2a, kappa)
# heavy: QVQVKESGPGLVAPSQSLSITCTVSGFSLTTSGVSWVRQPPGKGLEWLGVIWGDGSTNYHSALKSRLSIKKDHSKSQVFLKLNSLQTDDTATYYCAKGGYSLAHWGQGTLVTVSAAKTTAPSVYPLAPVCGDTTGSSVTLGCLVKGYFPEPVTLTWNSGSLSSGVHTFPAVLQSDLYTLSSSVTVTSSTWPSQSITCNVAHPASSTKVDKKIEPRGPTIKPCPPCKCPAPNLLGGPSVFIFPPKIKDVLMISLSPIVTCVVVDVSEDDPDVQISWFVNNVEVHTAQTQTHREDYNSTLRVVSALPIQHQDWMSGKEFKCKVNNKDLPAPIERTISKPKGSVRAPQVYVLPPPEEEMTKKQVTLTCMVTDFMPEDIYVEWTNNGKTELNYKNTEPVLDSDGSYFMYSKLRVEKKNWVERNSYSCSVVHEGLHNHHTTKSFSRTPGK
# light: DIQMTQSPASLSVSVGETVTITCRASENIRSNLAWYQQKQGKSPQLLVNVATNLADGVPSRFSGSGSGTQYSLKINSLQSEDFGTYYCQHYWGTTWTFGGGTKLEIKRADAAPTVSIFPPSSEQLTSGGASVVCFLNNFYPKDINVKWKIDGSERQNGVLNSWTDQDSKDSTYSMSSTLTLTKDEYERHNSYTCEATHKTSTSPIVKSFNRNEC
# notes: Murine hybridoma antibody; also called murine CD37-3 antibody; muCD37-3-PE
# Key:
# human CD37 [1] = target: T1, human CD37; experiment: flow cytometry titration on Ramos cells; apparent Kd
# Experimental: (§1) Binding specificity was tested by flow cytometry using purified antibodies. […] All murine antibodies were incubated for 3 h with either CD37-expressing 300-19 cells or the non-transfected 300-19 cells (1×10⁵ cells per sample) in 100 μL FACS buffer (RPMI-1640 medium supplemented with 2% normal goat serum). Then, the cells were pelleted, washed, and incubated for 1 h with 100 μL of FITC-conjugated goat anti-mouse IgG-antibody (Jackson Laboratory, 6 μg/mL in FACS buffer). The cells were pelleted again, washed with FACS buffer and resuspended in 200 μL of PBS containing 1% formaldehyde. Samples were acquired using a FACSCalibur flow cytometer with the HTS multiwell sampler or a FACS array flow cytometer and analyzed using CellQuest Pro (all from BD Biosciences, San Diego, US).
# The chimeric antibodies chCD37-3 and chCD37-12 were assayed for their binding affinity to Ramos cells in comparison to their murine counterparts. Flow cytometry binding assays using Ramos cells and muCD37-3, chCD37-3, muCD37-12 and chCD37-12 antibodies were carried out and analyzed as described in Example 2 using secondary FITC-conjugated goat-anti-murine and -anti-human antibodies. FIG. 9A depicts the dose-response curves generated by non-linear regression for each antibody. The value for the apparent dissociation constant (Kd) of each antibody was calculated using GraphPad Prism v4 (GraphPad software, San Diego, Calif.).
# hCD37-M1 = target: T2, hCD37-M1; experiment: flow cytometry, 300-19 cells expressing hCD37-M1, 1.5 µg/mL antibody
# Summary of the method: (§2)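 300-19 cells transfected with human CD37 wildtype or variants (non-transfected as control), 1×10⁵ per sample, incubated 3 h with purified murine antibodies (1.5 μg/mL for variant comparison) in RPMI-1640 with 2% goat serum. Bound antibody detected with FITC goat anti-mouse IgG (1 h), formaldehyde-fixed, analysed by flow cytometry.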
# hCD37-M3 = target: T3, hCD37-M3; experiment: flow cytometry, 300-19 cells expressing hCD37-M3, 1.5 µg/mL antibody
# Summary of the method: as §2
# human CD37 [2] = target: T1, human CD37; experiment: flow cytometry titration on WSU-DLCL-2 cells; EC50 taken as apparent Kd
# Experimental: as §1
# To verify that the antibodies can also bind to endogenously expressed CD37, binding experiments were performed with CD37-positive WSU-DLCL-2 lymphoma cells and the muCD37-3, muCD37-12, muCD37-8, muCD37-10 or muCD37-14 antibodies. WSU-DLCL-2 cells were incubated with varying concentrations of murine antibodies and processed as described above for flow cytometry analysis. Data analysis was performed using CellQuest Pro (BD Biosciences, San Diego, US) and for each sample the mean fluorescence intensity for FL1 (MFI) was exported and plotted against the antibody concentration in a semi-log plot (FIG. 3). […]
binder,measurement,setting,value
B1,Kd,human CD37 [1],0.4 nM
same,binding result,hCD37-M1,binds
same,binding result,hCD37-M3,binds
same,Kd,human CD37 [2],0.52 nM
